Measured values taken from US20150376265A1 (Genentech, published 2015).

Tests used:
[1] = target: T1, HCMV gH on virions of strain VR1814 (HCMV, UniProt P12824 24-743); test: cell-based or functional assay
T1 sequence: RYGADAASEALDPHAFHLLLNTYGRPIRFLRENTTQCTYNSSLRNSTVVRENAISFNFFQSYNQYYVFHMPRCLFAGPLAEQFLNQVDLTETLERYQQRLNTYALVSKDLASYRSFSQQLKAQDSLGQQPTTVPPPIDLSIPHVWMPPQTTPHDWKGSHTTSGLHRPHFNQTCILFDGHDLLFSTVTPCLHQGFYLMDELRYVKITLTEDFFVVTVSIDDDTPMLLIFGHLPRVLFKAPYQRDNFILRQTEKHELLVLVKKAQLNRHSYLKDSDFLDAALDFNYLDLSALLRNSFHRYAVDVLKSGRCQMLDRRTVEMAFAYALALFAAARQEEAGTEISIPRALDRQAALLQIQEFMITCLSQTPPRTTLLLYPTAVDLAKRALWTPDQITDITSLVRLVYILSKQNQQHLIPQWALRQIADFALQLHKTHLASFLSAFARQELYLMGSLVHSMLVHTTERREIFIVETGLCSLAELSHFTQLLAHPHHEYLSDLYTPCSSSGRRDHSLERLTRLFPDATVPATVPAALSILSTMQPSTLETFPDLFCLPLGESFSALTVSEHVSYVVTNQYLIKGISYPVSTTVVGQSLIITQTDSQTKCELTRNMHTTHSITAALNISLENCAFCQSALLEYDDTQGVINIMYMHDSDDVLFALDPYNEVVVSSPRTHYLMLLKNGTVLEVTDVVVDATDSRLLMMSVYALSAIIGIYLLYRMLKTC

[2] = target: T1, HCMV gH on virions of strain VR1814; test: cell-based or functional assay; remark: listed apart in the source
[3] = target: T1, HCMV gH on virions of strain VR1814; test: cell-based or functional assay; remark: listed apart in the source
[4] = target: T2, soluble baculovirus-expressed gH/gL (HCMV, UniProt P12824 24-720; P16832 31-278); test: competition phage ELISA: phage-displayed Fab with serially diluted soluble gH/gL, free phage caught on coated gH/gL
T2 construct: also called gH/gL dimer produced in baculovirus; baculovirus expressed, secreted gH/gL
T2 sequence 1: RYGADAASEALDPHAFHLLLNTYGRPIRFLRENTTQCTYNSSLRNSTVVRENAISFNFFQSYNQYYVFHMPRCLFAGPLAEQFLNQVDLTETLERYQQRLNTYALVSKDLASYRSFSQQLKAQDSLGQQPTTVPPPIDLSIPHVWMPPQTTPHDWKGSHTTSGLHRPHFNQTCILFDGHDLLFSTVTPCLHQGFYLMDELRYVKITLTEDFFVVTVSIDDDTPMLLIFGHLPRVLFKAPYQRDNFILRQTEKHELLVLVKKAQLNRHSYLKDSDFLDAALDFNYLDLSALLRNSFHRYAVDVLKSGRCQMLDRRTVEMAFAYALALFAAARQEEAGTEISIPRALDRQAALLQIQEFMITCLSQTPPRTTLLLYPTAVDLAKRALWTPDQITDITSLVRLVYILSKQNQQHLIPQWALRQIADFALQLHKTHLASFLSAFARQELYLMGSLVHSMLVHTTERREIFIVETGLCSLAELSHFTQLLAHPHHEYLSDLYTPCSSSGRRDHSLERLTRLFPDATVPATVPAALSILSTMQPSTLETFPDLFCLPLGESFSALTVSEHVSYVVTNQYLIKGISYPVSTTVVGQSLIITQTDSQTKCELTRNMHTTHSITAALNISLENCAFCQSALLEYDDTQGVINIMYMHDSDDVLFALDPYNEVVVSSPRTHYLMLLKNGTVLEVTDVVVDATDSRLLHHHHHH
T2 sequence 2: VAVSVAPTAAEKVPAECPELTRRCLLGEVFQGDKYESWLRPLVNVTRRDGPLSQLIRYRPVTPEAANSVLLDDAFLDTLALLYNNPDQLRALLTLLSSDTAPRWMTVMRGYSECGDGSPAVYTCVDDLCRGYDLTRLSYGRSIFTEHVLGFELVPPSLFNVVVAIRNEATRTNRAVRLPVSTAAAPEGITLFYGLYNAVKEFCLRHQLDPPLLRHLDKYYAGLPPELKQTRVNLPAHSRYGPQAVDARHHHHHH

B1: MSL-109 (antibody, V domains shown)
VH: EEQVLESGGGLVKPGGSLRLSCAASGFTFSPYSVFWVRQAPGKGLEWVSSINSDSTYKYYADSVKGRFTISRDNAENSIFLQMNSLRAEDTAVYYCARDRSYYAFSSGSLSDYYYGLDVWGQGTLVTVSS
VL: DIVMTQSPLSLSVTPGEPASISCRSSQSLLHTNGYNYLDWYVQKPGQSPQLLIYLASNRASGVPDRFSGSGSGTDFTLKISRVETEDVGVYYCMQALQIPRTFGQGTKVEIK
EC50, neutralisation of HCMV strain VR1814 on endothelial cells [1]: 0.0764 µg/mL | EC50, neutralisation of HCMV strain VR1814 on epithelial cells [1]: 0.164 µg/mL | EC50, neutralisation of HCMV strain VR1814 on fibroblasts [1]: 0.389 µg/mL | Epithelial EC50 (first pair of columns), neutralisation [2]: 0.3 µg/mL | Epithelial EC50 (second pair of columns), neutralisation [2]: 0.48 µg/mL | Fibroblast EC50, neutralisation [2]: 0.73 µg/mL | MDM EC50, neutralisation [2]: 0.04 µg/mL

B2: MSL-109 Fab fragment (WT) (Fab, V domains shown)
VH: EEQVLESGGGLVKPGGSLRLSCAASGFTFSPYSVFWVRQAPGKGLEWVSSINSDSTYKYYADSVKGRFTISRDNAENSIFLQMNSLRAEDTAVYYCARDRSYYAFSSGSLSDYYYGLDVWGQGTLVTVSS
VL: DIVMTQSPLSLSVTPGEPASISCRSSQSLLHTNGYNYLDWYVQKPGQSPQLLIYLASNRASGVPDRFSGSGSGTDFTLKISRVETEDVGVYYCMQALQIPRTFGQGTKVEIK
EC50, inhibition of HCMV entry into ARPE-19 cells, Fab fragments from E. coli [3]: 6200 pM

B3: MSL-109 Fab variant H2-D53S (Fab, name in Kabat numbering, V domains shown)
VH: EEQVLESGGGLVKPGGSLRLSCAASGFTFSPYSVFWVRQAPGKGLEWVSSINSSSTYKYYADSVKGRFTISRDNAENSIFLQMNSLRAEDTAVYYCARDRSYYAFSSGSLSDYYYGLDVWGQGTLVTVSS
VL: DIVMTQSPLSLSVTPGEPASISCRSSQSLLHTNGYNYLDWYVQKPGQSPQLLIYLASNRASGVPDRFSGSGSGTDFTLKISRVETEDVGVYYCMQALQIPRTFGQGTKVEIK
IC50 [4]: 100 pM

B4: HB2 Fab fragment, H2-D53Q/T55R (HB2) (Fab, name in Kabat numbering, V domains shown)
VH: EEQVLESGGGLVKPGGSLRLSCAASGFTFSPYSVFWVRQAPGKGLEWVSSINSQSRYKYYADSVKGRFTISRDNAENSIFLQMNSLRAEDTAVYYCARDRSYYAFSSGSLSDYYYGLDVWGQGTLVTVSS
VL: DIVMTQSPLSLSVTPGEPASISCRSSQSLLHTNGYNYLDWYVQKPGQSPQLLIYLASNRASGVPDRFSGSGSGTDFTLKISRVETEDVGVYYCMQALQIPRTFGQGTKVEIK
IC50 [4]: 10 pM

B5: MSL-109 Fab variant H2-D53S/T55R (Fab, name in Kabat numbering, V domains shown)
VH: EEQVLESGGGLVKPGGSLRLSCAASGFTFSPYSVFWVRQAPGKGLEWVSSINSSSRYKYYADSVKGRFTISRDNAENSIFLQMNSLRAEDTAVYYCARDRSYYAFSSGSLSDYYYGLDVWGQGTLVTVSS
VL: DIVMTQSPLSLSVTPGEPASISCRSSQSLLHTNGYNYLDWYVQKPGQSPQLLIYLASNRASGVPDRFSGSGSGTDFTLKISRVETEDVGVYYCMQALQIPRTFGQGTKVEIK
IC50 [4]: 30 pM

B6: MSL-109 Fab variant H2-D53F/T55R (Fab, name in Kabat numbering, V domains shown)
VH: EEQVLESGGGLVKPGGSLRLSCAASGFTFSPYSVFWVRQAPGKGLEWVSSINSFSRYKYYADSVKGRFTISRDNAENSIFLQMNSLRAEDTAVYYCARDRSYYAFSSGSLSDYYYGLDVWGQGTLVTVSS
VL: DIVMTQSPLSLSVTPGEPASISCRSSQSLLHTNGYNYLDWYVQKPGQSPQLLIYLASNRASGVPDRFSGSGSGTDFTLKISRVETEDVGVYYCMQALQIPRTFGQGTKVEIK
IC50 [4]: 10 pM

B7: MSL-109 Fab variant H2-D53L (Fab, name in Kabat numbering, V domains shown)
VH: EEQVLESGGGLVKPGGSLRLSCAASGFTFSPYSVFWVRQAPGKGLEWVSSINSLSTYKYYADSVKGRFTISRDNAENSIFLQMNSLRAEDTAVYYCARDRSYYAFSSGSLSDYYYGLDVWGQGTLVTVSS
VL: DIVMTQSPLSLSVTPGEPASISCRSSQSLLHTNGYNYLDWYVQKPGQSPQLLIYLASNRASGVPDRFSGSGSGTDFTLKISRVETEDVGVYYCMQALQIPRTFGQGTKVEIK
IC50 [4]: 20 pM

B8: MSL-109 Fab variant H2-D53L/T55R (Fab, name in Kabat numbering, V domains shown)
VH: EEQVLESGGGLVKPGGSLRLSCAASGFTFSPYSVFWVRQAPGKGLEWVSSINSLSRYKYYADSVKGRFTISRDNAENSIFLQMNSLRAEDTAVYYCARDRSYYAFSSGSLSDYYYGLDVWGQGTLVTVSS
VL: DIVMTQSPLSLSVTPGEPASISCRSSQSLLHTNGYNYLDWYVQKPGQSPQLLIYLASNRASGVPDRFSGSGSGTDFTLKISRVETEDVGVYYCMQALQIPRTFGQGTKVEIK
IC50 [4]: 20 pM

B9: MSL-109 Fab variant H2-D53T (Fab, name in Kabat numbering, V domains shown)
VH: EEQVLESGGGLVKPGGSLRLSCAASGFTFSPYSVFWVRQAPGKGLEWVSSINSTSTYKYYADSVKGRFTISRDNAENSIFLQMNSLRAEDTAVYYCARDRSYYAFSSGSLSDYYYGLDVWGQGTLVTVSS
VL: DIVMTQSPLSLSVTPGEPASISCRSSQSLLHTNGYNYLDWYVQKPGQSPQLLIYLASNRASGVPDRFSGSGSGTDFTLKISRVETEDVGVYYCMQALQIPRTFGQGTKVEIK
IC50 [4]: 60 pM

B10: MSL-109 Fab variant H2-D53T/T55R (Fab, name in Kabat numbering, V domains shown)
VH: EEQVLESGGGLVKPGGSLRLSCAASGFTFSPYSVFWVRQAPGKGLEWVSSINSTSRYKYYADSVKGRFTISRDNAENSIFLQMNSLRAEDTAVYYCARDRSYYAFSSGSLSDYYYGLDVWGQGTLVTVSS
VL: DIVMTQSPLSLSVTPGEPASISCRSSQSLLHTNGYNYLDWYVQKPGQSPQLLIYLASNRASGVPDRFSGSGSGTDFTLKISRVETEDVGVYYCMQALQIPRTFGQGTKVEIK
IC50 [4]: 30 pM

B11: MSL-109 Fab variant H2-T55R (Fab, name in Kabat numbering, V domains shown)
VH: EEQVLESGGGLVKPGGSLRLSCAASGFTFSPYSVFWVRQAPGKGLEWVSSINSDSRYKYYADSVKGRFTISRDNAENSIFLQMNSLRAEDTAVYYCARDRSYYAFSSGSLSDYYYGLDVWGQGTLVTVSS
VL: DIVMTQSPLSLSVTPGEPASISCRSSQSLLHTNGYNYLDWYVQKPGQSPQLLIYLASNRASGVPDRFSGSGSGTDFTLKISRVETEDVGVYYCMQALQIPRTFGQGTKVEIK
IC50 [4]: 170 pM

B12: MSL-109 Fab variant H2-D53N (Fab, name in Kabat numbering, V domains shown)
VH: EEQVLESGGGLVKPGGSLRLSCAASGFTFSPYSVFWVRQAPGKGLEWVSSINSNSTYKYYADSVKGRFTISRDNAENSIFLQMNSLRAEDTAVYYCARDRSYYAFSSGSLSDYYYGLDVWGQGTLVTVSS
VL: DIVMTQSPLSLSVTPGEPASISCRSSQSLLHTNGYNYLDWYVQKPGQSPQLLIYLASNRASGVPDRFSGSGSGTDFTLKISRVETEDVGVYYCMQALQIPRTFGQGTKVEIK
IC50 [4]: 60 pM

B13: MSL-109 Fab variant H2-D53M/T55R (Fab, name in Kabat numbering, V domains shown)
VH: EEQVLESGGGLVKPGGSLRLSCAASGFTFSPYSVFWVRQAPGKGLEWVSSINSMSRYKYYADSVKGRFTISRDNAENSIFLQMNSLRAEDTAVYYCARDRSYYAFSSGSLSDYYYGLDVWGQGTLVTVSS
VL: DIVMTQSPLSLSVTPGEPASISCRSSQSLLHTNGYNYLDWYVQKPGQSPQLLIYLASNRASGVPDRFSGSGSGTDFTLKISRVETEDVGVYYCMQALQIPRTFGQGTKVEIK
IC50 [4]: 70 pM

B14: MSL-109 Fab variant H2-D53M (Fab, name in Kabat numbering, V domains shown)
VH: EEQVLESGGGLVKPGGSLRLSCAASGFTFSPYSVFWVRQAPGKGLEWVSSINSMSTYKYYADSVKGRFTISRDNAENSIFLQMNSLRAEDTAVYYCARDRSYYAFSSGSLSDYYYGLDVWGQGTLVTVSS
VL: DIVMTQSPLSLSVTPGEPASISCRSSQSLLHTNGYNYLDWYVQKPGQSPQLLIYLASNRASGVPDRFSGSGSGTDFTLKISRVETEDVGVYYCMQALQIPRTFGQGTKVEIK
IC50 [4]: 50 pM
